Test results taken from patent publication US20160090402A1 (BIOMERIEUX, published 2016).

B1: soluble recombinant SU subunit of the HERV-W envelope (EnvSU, 1-317) (ligand)
chain: APPPCRCMTSSSPYQEFLWRMQRPGNIDAPSYRSLSKGTPTFTAHTHMPRNCYHSATLCMHANTHYWTGKMINPSCPGGLGVTVCWTYFTQTGMSDGGGVQDQAREKHVKEVISQLTRVHGTSSPYKGLDLSKLHETLRTHTRLVSLFNTTLTGLHEVSAQNPTNCWICLPLNFRPYVSIPVPEQWNNFSTEINTTSVLVGPLVSNLEITHTSNLTCVKFSNTTYTTNSQCIRWVTPPTQIVCLPSGIFFVCGTSAYRCLNGSSESMCFLSFLVPPMTIYTEQDLYSYVISKPAAARRGSHHHHHH
notes: range 21-317; Used as filtered HEK293T supernatant; also called soluble SU; SU subunit (1-317)
B2: soluble recombinant envelope protein Env-Gp60 (Gp60, 1-435) (ligand)
chain: not shown
notes: range 21-435; Used as filtered HEK293T supernatant; the construct is printed as 1-435; also called soluble envelope

How the values were obtained:
hASCT1 receptor = target: T1, hASCT1 receptor (human, UniProt P43007 1-532); assay: flow cytometry on XChASCT1 cells, anti-RGS-His detection
T1 construct: whole, on cells
T1 sequence: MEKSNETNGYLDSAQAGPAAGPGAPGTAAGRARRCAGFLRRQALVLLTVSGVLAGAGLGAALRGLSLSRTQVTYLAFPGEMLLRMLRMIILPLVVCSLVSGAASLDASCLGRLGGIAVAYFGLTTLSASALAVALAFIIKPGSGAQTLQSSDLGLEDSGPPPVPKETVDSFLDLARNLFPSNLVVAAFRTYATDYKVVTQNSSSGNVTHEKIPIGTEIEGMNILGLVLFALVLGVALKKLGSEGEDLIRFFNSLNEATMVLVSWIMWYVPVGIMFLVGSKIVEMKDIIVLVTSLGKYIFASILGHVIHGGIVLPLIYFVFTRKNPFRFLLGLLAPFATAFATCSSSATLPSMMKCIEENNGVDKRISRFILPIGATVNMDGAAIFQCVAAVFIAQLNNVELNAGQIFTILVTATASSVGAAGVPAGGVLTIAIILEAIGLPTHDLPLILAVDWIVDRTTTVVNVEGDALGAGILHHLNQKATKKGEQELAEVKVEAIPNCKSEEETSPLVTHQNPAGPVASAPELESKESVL

[1] = target: T2, hASCT2 receptor (human type 2 sodium-dependent neutral amino acid transporter) (human, UniProt Q15758 1-541); assay: flow cytometry on XChASCT2 cells and on TE671 and TE671galv cells, anti-RGS-His detection
T2 construct: whole, on cells
T2 sequence: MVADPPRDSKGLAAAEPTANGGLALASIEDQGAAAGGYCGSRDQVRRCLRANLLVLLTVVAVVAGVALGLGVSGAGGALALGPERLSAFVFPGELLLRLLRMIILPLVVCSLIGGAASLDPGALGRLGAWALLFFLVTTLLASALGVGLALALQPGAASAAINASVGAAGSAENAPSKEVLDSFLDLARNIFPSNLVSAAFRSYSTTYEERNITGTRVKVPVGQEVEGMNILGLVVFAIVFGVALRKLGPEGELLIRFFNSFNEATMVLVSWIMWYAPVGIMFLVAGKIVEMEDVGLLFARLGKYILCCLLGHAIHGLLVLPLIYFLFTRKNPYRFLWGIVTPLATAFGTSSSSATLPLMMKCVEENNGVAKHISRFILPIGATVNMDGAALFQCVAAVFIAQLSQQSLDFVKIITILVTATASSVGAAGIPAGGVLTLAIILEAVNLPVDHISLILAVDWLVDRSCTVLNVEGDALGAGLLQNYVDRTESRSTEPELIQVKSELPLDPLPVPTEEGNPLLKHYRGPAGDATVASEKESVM

[2] = target: T2, hASCT2 receptor (human type 2 …); assay: flow cytometry on XChASCT2 cells, anti-RGS-His detection

Row | Binder | binding result (hASCT1 receptor) | binding result [1] | binding result [2]
1 | B1 | binds | binds | –
2 | B2 | – | – | binds
